Changes are numbered by the printed parent chain.
Assays:
Experiment in all cases: fluorescence anisotropy; 20 mM Tris-HCl pH 8.5, 10 mM KCl, 10 mM (NH4)2SO4 (ionic strength 40); 10 nM Hex primer-template; rest of buffer and temperature not in material
Conditions in all cases: protein: recombinant; label: 5'-hexachlorofluorescein on primer (strand 1); 5' overhang 20 nt on template (strand 2)
[1] = target: T1, Pfu-TkodTS (thumb swap) (Pyrococcus furiosus / Thermococcus …, UniProt P61875 1-590+D0VWU9:590-774, internal_change)
T1 sequence: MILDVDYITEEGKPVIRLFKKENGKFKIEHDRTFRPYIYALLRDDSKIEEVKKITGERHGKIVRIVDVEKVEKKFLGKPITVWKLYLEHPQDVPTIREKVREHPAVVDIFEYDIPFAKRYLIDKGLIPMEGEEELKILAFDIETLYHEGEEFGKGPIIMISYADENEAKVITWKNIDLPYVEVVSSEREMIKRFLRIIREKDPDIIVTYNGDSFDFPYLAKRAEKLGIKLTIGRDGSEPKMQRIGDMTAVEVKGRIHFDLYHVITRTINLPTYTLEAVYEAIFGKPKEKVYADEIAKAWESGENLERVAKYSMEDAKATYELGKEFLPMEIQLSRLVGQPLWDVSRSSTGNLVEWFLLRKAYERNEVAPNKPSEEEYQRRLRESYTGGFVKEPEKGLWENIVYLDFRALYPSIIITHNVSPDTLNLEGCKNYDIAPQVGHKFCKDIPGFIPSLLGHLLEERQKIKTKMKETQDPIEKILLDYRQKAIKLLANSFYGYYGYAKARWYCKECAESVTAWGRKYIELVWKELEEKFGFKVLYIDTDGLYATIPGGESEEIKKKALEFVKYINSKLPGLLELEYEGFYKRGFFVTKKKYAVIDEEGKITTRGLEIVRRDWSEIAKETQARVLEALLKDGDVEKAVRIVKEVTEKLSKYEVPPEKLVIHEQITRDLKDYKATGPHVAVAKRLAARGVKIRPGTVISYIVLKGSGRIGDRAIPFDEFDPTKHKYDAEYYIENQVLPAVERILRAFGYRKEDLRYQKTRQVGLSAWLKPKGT

[2] = target: T2, Pfu-TkodTS L381R/K502R (Pyrococcus furiosus / Thermococcus …, UniProt P61875 1-590+D0VWU9:590-774, L381R;K502R;internal_change)
T2 sequence: T1 sequence with L381R, K502R

[3] = target: T3, Pfu-Pol wild type (family-B DNA polymerase) (Pyrococcus furiosus, UniProt P61875 1-775)
T3 sequence: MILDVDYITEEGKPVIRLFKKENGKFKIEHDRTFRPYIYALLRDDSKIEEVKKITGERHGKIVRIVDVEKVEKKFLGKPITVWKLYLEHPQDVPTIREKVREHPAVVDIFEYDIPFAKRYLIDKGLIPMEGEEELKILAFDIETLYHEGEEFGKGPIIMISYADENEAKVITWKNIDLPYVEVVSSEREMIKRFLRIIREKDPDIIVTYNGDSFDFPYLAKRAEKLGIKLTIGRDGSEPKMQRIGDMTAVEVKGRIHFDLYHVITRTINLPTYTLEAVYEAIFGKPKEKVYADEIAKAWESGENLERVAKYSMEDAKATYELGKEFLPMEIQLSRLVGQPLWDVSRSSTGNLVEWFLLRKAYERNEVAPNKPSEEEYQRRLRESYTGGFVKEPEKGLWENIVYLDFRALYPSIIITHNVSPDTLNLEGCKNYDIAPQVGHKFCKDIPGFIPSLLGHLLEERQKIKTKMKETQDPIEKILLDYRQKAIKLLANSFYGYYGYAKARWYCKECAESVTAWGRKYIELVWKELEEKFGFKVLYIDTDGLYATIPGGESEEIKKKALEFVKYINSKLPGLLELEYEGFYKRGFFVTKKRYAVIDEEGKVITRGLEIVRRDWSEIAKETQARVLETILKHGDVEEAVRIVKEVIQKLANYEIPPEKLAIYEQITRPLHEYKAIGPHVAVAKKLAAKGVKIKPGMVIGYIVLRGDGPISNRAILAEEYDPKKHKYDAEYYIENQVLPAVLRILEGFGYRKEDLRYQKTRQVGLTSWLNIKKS

[4] = target: T4, Tkod-Pol wild type (family-B DNA polymerase) (Thermococcus kodakarensis, UniProt D0VWU9 1-774)
T4 sequence: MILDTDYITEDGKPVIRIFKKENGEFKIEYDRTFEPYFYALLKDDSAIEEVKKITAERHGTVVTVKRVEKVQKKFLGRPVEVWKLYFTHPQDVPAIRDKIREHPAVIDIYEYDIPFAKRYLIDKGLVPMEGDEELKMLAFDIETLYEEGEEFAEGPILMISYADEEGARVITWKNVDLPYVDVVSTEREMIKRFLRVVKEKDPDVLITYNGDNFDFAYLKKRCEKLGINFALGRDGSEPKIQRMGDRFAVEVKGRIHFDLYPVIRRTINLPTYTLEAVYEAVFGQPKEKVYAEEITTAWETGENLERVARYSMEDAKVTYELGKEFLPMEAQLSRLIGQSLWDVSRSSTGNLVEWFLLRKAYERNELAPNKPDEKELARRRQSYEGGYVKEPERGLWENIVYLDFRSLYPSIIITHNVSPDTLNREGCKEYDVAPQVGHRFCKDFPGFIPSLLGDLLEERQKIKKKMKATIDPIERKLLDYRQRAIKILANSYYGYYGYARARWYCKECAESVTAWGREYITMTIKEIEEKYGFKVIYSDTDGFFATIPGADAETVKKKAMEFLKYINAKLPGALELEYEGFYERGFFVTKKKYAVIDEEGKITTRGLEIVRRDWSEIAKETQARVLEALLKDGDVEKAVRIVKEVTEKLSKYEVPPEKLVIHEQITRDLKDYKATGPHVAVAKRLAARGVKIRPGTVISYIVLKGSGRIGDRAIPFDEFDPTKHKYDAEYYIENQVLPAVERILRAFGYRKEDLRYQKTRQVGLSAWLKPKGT

[5] = target: T5, Pfu-Pol M247R/L381R (Pyrococcus furiosus, UniProt P61875 1-775, M247R;L381R)
T5 sequence: T3 sequence with M247R, L381R

[6] = target: T6, Pfu-Pol L381R/K502R (Pyrococcus furiosus, UniProt P61875 1-775, L381R;K502R)
T6 sequence: T3 sequence with L381R, K502R

B1: Hex primer-template (24/44) (dsDNA)
DNA 1: GGGGATCCTCTAGAGTCGACCTGC
DNA 2: GGAGACAAGCTTGCTTGCCAGCAGGTCGACTCTAGAGGATCCCC
Question: Which results are given for B1?
Answer: Kd [1]: 95 ± 7 nM; Kd [2]: 50 ± 7 nM; Kd [3]: 251 ± 23 nM; Kd [4]: 276 ± 18 nM; Kd [5]: 70 ± 9 nM; Kd [6]: 107 ± 13 nM

— PMC4034419, “DNA polymerase hybrids derived from the family-B enzymes of Pyrococcus furiosus and Thermococcus kodakarensis: improving performance in the polymerase chain reaction”
